Key:
[1] = test system: CD8+ T cells; experiment: In vitro immunogenicity: T-cell priming with aAPCs loaded with peptide/MHC and anti-CD28, pMHC multimer readout; type: cell-based, human; conditions: HLA-A*02 restricted peptides, percentage of positive wells among evaluable
Procedure: FIGS. 3A-3F describe simulation graphs of various peptides of the present disclosure. […] CD8+ T cells were primed using artificial APCs coated with anti-CD28 mAb and HLA-A*02 in complex with SeqID No 1 peptide (FIG. 3C, left panel), SeqID No 5 peptide (FIG. 3D left panel), SeqID No 32 peptide (FIG. 3E, left panel) and SeqID No 220 peptide (FIG. 3F, left panel), respectively. After three cycles of stimulation, the detection of peptide-reactive cells was performed by 2D multimer staining with A*02/SeqID No 1 (FIG. 3C), A*02/SeqID No 5 (D), A*02/SeqID No 32 (FIG. 3E) or A*02/SeqID No 220 (FIG. 3F). Right panels (FIGS. 3C, 3D, 3E and 3F) show control staining of cells stimulated with irrelevant A*02/peptide complexes. Viable singlet cells were gated for CD8+ lymphocytes. Boolean gates helped excluding false-positive events detected with multimers specific for different peptides.
In order to obtain information regarding the immunogenicity of the TUMAPs of the present invention, the inventors performed investigations using an in vitro T-cell priming assay based on repeated stimulations of CD8+ T cells with artificial antigen presenting cells (aAPCs) loaded with peptide/MHC complexes and anti-CD28 antibody.
In order to perform in vitro stimulations by artificial antigen presenting cells loaded with peptide-MHC complex (pMHC) and anti-CD28 antibody, the inventors first isolated CD8+ T cells from fresh HLA-A*02 leukapheresis products via positive selection using CD8 microbeads (Miltenyi Biotec, Bergisch-Gladbach, Germany) of healthy donors obtained from the University clinics Mannheim, Germany, after informed consent.
PBMCs and isolated CD8+ lymphocytes were incubated in T-cell medium (TCM) until use consisting of RPMI-Glutamax (Invitrogen, Karlsruhe, Germany) supplemented with 10% heat inactivated human AB serum (PAN-Biotech, Aidenbach, Germany), 100 U/ml Penicillin/100 μg/ml Streptomycin (Cambrex, Cologne, Germany), 1 mM sodium pyruvate (CC Pro, Oberdorla, Germany), 20 μg/ml Gentamycin (Cambrex). 2.5 ng/ml IL-7 (PromoCell, Heidelberg, Germany) and 10 U/ml IL-2 (Novartis Pharma, Nümberg, Germany) were also added to the TCM at this step.
Generation of pMHC/anti-CD28 coated beads, T-cell stimulations and readout was performed in a highly defined in vitro system using four different pMHC molecules per stimulation condition and 8 different pMHC molecules per readout condition.
The purified co-stimulatory mouse IgG2a anti human CD28 Ab 9.3 (Jung et al., 1987) was chemically biotinylated using Sulfo-N-hydroxysuccinimidobiotin as recommended by the manufacturer (Perbio, Bonn, Germany). Beads used were 5.6 μm diameter streptavidin coated polystyrene particles (Bangs Laboratories, Illinois, USA).
800.000 beads/200 μl were coated in 96-well plates in the presence of 4×12.5 ng different biotin-pMHC, washed and 600 ng biotin anti-CD28 were added subsequently in a volume of 200 μl. Stimulations were initiated in 96-well plates by co-incubating 1×10^6 CD8+ T cells with 2×10^6 washed coated beads in 200 μl TCM supplemented with 5 ng/ml IL-12 (PromoCell) for 3 days at 37° C. Half of the medium was then exchanged by fresh TCM supplemented with 80 U/ml IL-2 and incubating was continued for 4 days at 37° C. This stimulation cycle was performed for a total of three times. For the pMHC multimer readout using 8 different pMHC molecules per condition, a two-dimensional combinatorial coding approach was used as previously described (Andersen et al., 2012) with minor modifications encompassing coupling to 5 different fluorochromes. Finally, multimeric analyses were performed by staining the cells with Live/dead near IR dye (Invitrogen, Karlsruhe, Germany), CD8-FITC antibody clone SK1 (BD, Heidelberg, Germany) and fluorescent pMHC multimers. For analysis, a BD LSRII SORP cytometer equipped with appropriate lasers and filters was used.

[2] = molecular target: HLA-A*02:01 (Homo sapiens, UniProt P04439, D140Y/D185E/D98H/E176V/E277Q/G131W/G231S/I119V/I121R/I166T/I218V/L300P/L318F/N151K/N90K/P208A/P217A/Q86G/Q94H/R138H/R169H/T345S); experiment: MHC binding assay (UV-ligand exchange, β2m ELISA, peptide exchange yield); conditions: binding to HLA-A*02:01
Outline: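 Peptide-HLA-A*02:01 complexes formed by UV-mediated exchange of a photocleavable ligand; exchange yield measured by streptavidin-capture ELISA detecting β2m with HRP anti-β2m, TMB read at 450 nm. Refolded monomer standards 15-500 ng/ml; samples diluted 100-fold.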

| Substance | Wells positive [%] [1] | Peptide Exchange (MHC class I binding score, peptide exchange yield) [2] |
| --- | --- | --- |
| 200 (YMFEEVPIVI; listed as Homo sapiens) [compound 200] | “+” (<20% = +) | “++++” (>75% = ++++) |
| 332 (VMIQHVENL; listed as Homo sapiens) [compound 332] | “+” (<20% = +) | “+++” (>50 = +++) |
| 307 (LLLTKPTEA; listed as Homo sapiens) [compound 307] | “+” (<20% = +) | “+++” (>50 = +++) |
| 281 (NLLDDRGMTAL; listed as Homo sapiens) [compound 281] | “+” (<20% = +) | “+++” (>50 = +++) |
| 86 (HLYPGAVTI; listed as Homo sapiens) [compound 86] | “+” (<20% = +) | “+++” (>50 = +++) |
| 154 (SLLAELHVLTV; listed as Homo sapiens) [compound 154] | “+” (<20% = +) | “++++” (>75% = ++++) |
| 54 (FLYPFPLALF; listed as Homo sapiens) [compound 54] | “+” (<20% = +) | “+++” (>50 = +++) |
| 112 (KTLDVDATYEI; listed as Homo sapiens) [compound 112] | “+” (<20% = +) | “+++” (>50 = +++) |
| 96 (ILIDKTSFV; listed as Homo sapiens) [compound 96] | “+” (<20% = +) | “+++” (>50 = +++) |
| 26 (AVLLVLPLV; listed as Homo sapiens) [compound 26] | “+” (<20% = +) | “+++” (>50 = +++) |
| 81 (WLVGQEFEL; listed as Homo sapiens) [compound 81] | “+” (<20% = +) | “+++” (>50 = +++) |
| 69 (GLHQREIFL; listed as Homo sapiens) [compound 69] | “+” (<20% = +) | “+++” (>50 = +++) |
| 323 (SLDLFNCEV; listed as Homo sapiens) [compound 323] | “+” (<20% = +) | “++++” (>75% = ++++) |
| 17 (ALTKTNLQL; listed as Homo sapiens) [compound 17] | “+” (<20% = +) | “+++” (>50 = +++) |
| 201 (YQLELHGIEL; listed as Homo sapiens) [compound 201] | “+” (<20% = +) | “++++” (>75% = ++++) |
| 192 (YIQEYLTLL; listed as Homo sapiens) [compound 192] | “+” (<20% = +) | “+++” (>50 = +++) |

| Substance | Wells positive [%] [1] | Peptide Exchange (MHC class I binding score, peptide exchange yield) [2] |
| --- | --- | --- |
| 320 (TIAPVTVAV; listed as Homo sapiens) [compound 320] | “+” (<20% = +) | “++++” (>75% = ++++) |
| 32 (FIDKFTPPV; listed as Homo sapiens) [compound 32] | “++++” (>=70% = ++++) | “++++” (>75% = ++++) |
| 102 (IQDRAVPSL; listed as Homo sapiens) [compound 102] | “+” (<20% = +) | “++” (>20% = ++) |
| 240 (ILARDILEI; listed as Homo sapiens) [compound 240] | “+” (<20% = +) | “+++” (>50 = +++) |
| 2 (ALHRPDVYL; listed as Homo sapiens) [compound 2] | “+” (<20% = +) | “+++” (>50 = +++) |
| 322 (SLASIHVPL; listed as Homo sapiens) [compound 322] | “+” (<20% = +) | “+++” (>50 = +++) |
| 380 (YLDRKLLTL; listed as Homo sapiens) [compound 380] | “++++” (>=70% = ++++) | “+++” (>50 = +++) |
| 114 (LIPEGPPQV; listed as Homo sapiens) [compound 114] | “+” (<20% = +) | “+++” (>50 = +++) |
| 197 (YLQEVPILTL; listed as Homo sapiens) [compound 197] | “+” (<20% = +) | “++++” (>75% = ++++) |
| 57 (GLSEISLRL; listed as Homo sapiens) [compound 57] | “+” (<20% = +) | “++++” (>75% = ++++) |
| 101 (ILVVIEPLL; listed as Homo sapiens) [compound 101] | “+” (<20% = +) | “++++” (>75% = ++++) |
| 271 (VIRNIVEAA; listed as Homo sapiens) [compound 271] | – | “++” (>20% = ++) |
| 93 (ILFNTQINI; listed as Homo sapiens) [compound 93] | – | “+++” (>50 = +++) |
| 109 (KLWEGLTELV; listed as Homo sapiens) [compound 109] | – | “+++” (>50 = +++) |
| 373 (TLLADQGEIRV; listed as Homo sapiens) [compound 373] | – | “++” (>20% = ++) |
| 202 (YVDDVFLRV; listed as Homo sapiens) [compound 202] | – | “++++” (>75% = ++++) |

— patent US11260115B1, “Peptides and combination of peptides for use in immunotherapy against CLL and other cancers” (immatics biotechnologies GmbH, priority 2015, dated 2022)
